Test results reported in patent US20230346960A1.
No end group written: not given here.

Target: collagen IV/laminin (2% reduced growth factor Matrigel, Corning #354230)
Assay: plate binding assay, biotinylated molecule on Matrigel-coated plate, streptavidin-HRP, absorbance 450 nm

- binding capacity: 1.1 AU
B1: DS-SILY4 (biotinylated; dermatan sulfate backbone with 4 SILY peptide substitutions per DS) (peptide)
peptide: RRANAALKAGELYKSILYGSG
modifications: not fully specified (C-terminus); also: about 4 peptides per dermatan sulfate, one equivalent N-terminally biotinylated SILY-hydrazide also conjugated
